How the values were obtained:
[1] = target: T1, Human Siglec-15, His Tag (human Siglec-15 full-length extracellular domain linked with His tag) (human, UniProt Q6ZMC9 20-263); experiment: Octet BLI epitope binning, Siglec-15 His on HIS1K sensor; competitor 255C12B10
T1 construct: Bought from ACROBiosystems; also called Siglec-15 protein; SG5-H52H3
T1 sequence: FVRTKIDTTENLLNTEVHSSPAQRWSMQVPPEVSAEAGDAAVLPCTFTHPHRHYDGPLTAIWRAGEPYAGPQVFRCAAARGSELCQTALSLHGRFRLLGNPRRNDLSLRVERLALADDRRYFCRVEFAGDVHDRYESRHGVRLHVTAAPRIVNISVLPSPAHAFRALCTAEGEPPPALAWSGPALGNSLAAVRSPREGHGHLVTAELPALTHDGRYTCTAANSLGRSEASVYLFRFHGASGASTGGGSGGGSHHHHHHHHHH
Protocol: (§1) Epitope binning assays were performed using the Octet RED96e (ForteBio) System for the antibodies tested. Human Siglec-15, His Tag (Cat. No. SG5-H52H3) (5 μg/mL) was captured by the HIS1K biosensor and bound to primary antibody (100 nM) for 180 s. Then, the Human Siglec-15, His Tag (antigen)-primary antibody was bound to secondary antibody (100 nM) on the biosensors for 90 s. Data analysis was performed using Octet RED96e (ForteBio) analysis software.

[2] = target: T1, Human Siglec-15, His Tag (human …); experiment: Octet BLI epitope binning, Siglec-15 His on HIS1K sensor; competitor 174C11C9
Protocol: as §1

[3] = target: T1, Human Siglec-15, His Tag (human …); experiment: ELISA, coated antigen
Protocol: (§2) The variable regions from the antibodies produced by the hybridomas were combined with human IgG1 (N297A) constant regions to generate chimeric antibodies, named as 21F6C6, 75E1F2, 124B11F6, 174C11C9, and 255C12B10, respectively. Binding activity assays were performed on the chimeric antibodies using Siglec-15 proteins from different species, in which human, mouse and Cynomolgus Monkey Siglec-15 proteins were purchased from ACROBiosystems (Beijing, China). Antigen was coated at 0.5 μg/ml, and antibodies were diluted starting from 1 μg/ml and incubated with antigen. Horseradish peroxidase-labeled Anti-Human IgG antibody was used as the secondary antibody and OD₄₅₀ values were read after adding the substrate.

[4] = target: T2, Cynomolgus Monkey Siglec-15 full-length extracellular domain linked with His tag (Cynomolgus Monkey); experiment: ELISA, coated antigen
T2 construct: Bought from ACROBiosystems; also called SG5-052H6
T2 chain: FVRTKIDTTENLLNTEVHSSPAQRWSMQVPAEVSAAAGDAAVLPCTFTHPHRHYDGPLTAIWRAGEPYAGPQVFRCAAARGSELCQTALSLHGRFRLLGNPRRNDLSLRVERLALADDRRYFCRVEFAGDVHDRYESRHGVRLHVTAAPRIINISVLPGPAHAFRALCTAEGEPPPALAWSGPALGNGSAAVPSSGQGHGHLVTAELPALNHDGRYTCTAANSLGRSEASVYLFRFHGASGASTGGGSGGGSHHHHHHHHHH
Protocol: as §2

[5] = target: T1, Human Siglec-15, His Tag (human …); experiment: Octet BLI epitope binning, Siglec-15 His on HIS1K sensor; competitor 124B11F6
Protocol: as §1

[6] = target: T1, Human Siglec-15, His Tag (human …); experiment: Octet BLI epitope binning, Siglec-15 His on HIS1K sensor; competitor 21F6C6
Protocol: as §1

[7] = target: T1, Human Siglec-15, His Tag (human …); experiment: SPR Biacore 8K, antibody captured by anti-human Fc, Siglec-15 His as analyte
Protocol: Affinity analysis was performed using Biacore8K, and a CM5 chip immobilized with anti-human Fc antibody was used to capture the antibodies tested. The stock solutions of the antibodies to be tested were diluted to 5 μg/mL, and injected sequentially into the experimental channels at a flow rate of 10 μL/min at about 500 RU. The analyte was Human Siglec-15, His Tag (Cat. #SG5-H52H3), the diluted human Siglec-15 protein was injected sequentially into the experimental channels and the control channel at a flow rate of 30 μL/min and allowing for a binding time of 150 s and a dissociation time of 700 s. The KD value of each antibody was calculated using Biacore 8K analysis software.

[8] = target: T3, Human Siglec-15 overexpressed on HEK293T cells (HEK293T-hu-S15) (human, UniProt Q6ZMC9 20-328); experiment: flow cytometry on HEK293T-hu-S15 cells, detection with anti-human IgG (Fc specific)-FITC, average fluorescence intensity
T3 construct: whole, on cells; also called HEK293T-hu-S15 cell line
T3 sequence (looked up): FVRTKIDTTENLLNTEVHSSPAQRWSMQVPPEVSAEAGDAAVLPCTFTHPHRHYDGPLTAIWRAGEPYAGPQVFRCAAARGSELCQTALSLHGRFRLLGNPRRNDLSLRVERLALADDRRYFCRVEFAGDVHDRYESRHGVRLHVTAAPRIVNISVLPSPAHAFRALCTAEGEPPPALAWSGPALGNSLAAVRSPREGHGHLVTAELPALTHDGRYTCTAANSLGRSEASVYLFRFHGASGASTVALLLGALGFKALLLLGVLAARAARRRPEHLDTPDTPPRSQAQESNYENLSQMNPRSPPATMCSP
Protocol: HEK293T cell line overexpressing Siglec-15 (HEK293T-hu-S15) was purchased from KYinno Biotechnology Co., Ltd (Beijing, China) under Catalog #KC-1314. Purified anti-Siglec-15 chimeric antibodies were diluted at a gradient of 100 nM and incubated with HEK293T-hu-S15 cells at 4° C. for 30 min. Flow cytometry was performed after addition of anti-human IgG (Fc specific)-FITC (cat. #F9512) and incubation for 30 min.

[9] = target: T1, Human Siglec-15, His Tag (human …); experiment: Octet BLI epitope binning, Siglec-15 His on HIS1K sensor; competitor 75E1F2
Protocol: as §1

[10] = target: T4, Mouse Siglec-15 full-length extracellular domain linked with His tag (mouse); experiment: ELISA, coated antigen
T4 construct: Bought from ACROBiosystems; also called SG5-M52H7
T4 chain: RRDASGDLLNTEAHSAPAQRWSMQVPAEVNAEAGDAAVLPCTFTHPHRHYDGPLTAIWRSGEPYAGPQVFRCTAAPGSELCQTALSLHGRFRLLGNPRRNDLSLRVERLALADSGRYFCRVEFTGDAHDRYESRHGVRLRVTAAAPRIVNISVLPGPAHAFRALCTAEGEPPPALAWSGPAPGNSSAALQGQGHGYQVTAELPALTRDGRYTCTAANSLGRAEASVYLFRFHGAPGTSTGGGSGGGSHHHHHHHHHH
Protocol: as §2

[11] = target: T1, Human Siglec-15, His Tag (human …); experiment: SPR Biacore, antibody captured by anti-human Fc on CM5, Siglec-15 protein as analyte

Binder	cross-competition score [1] [%]	cross-competition score [2] [%]	EC50 [3] [µg/mL]	EC50 [4] [µg/mL]	cross-competition score [5] [%]	cross-competition score [6] [%]	Kd [7] [pM]	koff [7] [s⁻¹]	kon [7] [M⁻¹ s⁻¹]	EC50 [8] [pM]	cross-competition score [9] [%]	EC50 [10] [µg/mL]	Kd [11] [pM]	koff [11] [s⁻¹]	kon [11] [M⁻¹ s⁻¹]
75E1F2 chimeric antibody (antibody, V domains shown, Mouse variable regions combined with human IgG1 (N297A) constant regions) VH: EVQLVESGGGSVKPGGSLKLSCAASGFTFSDYGMHWVRQAPEKGLEWITYISSGSSIIDYSDTVKGRFTISRDNAKDTLFLQMTSLRSEDTAIYYCVRREDHYAMDYWGQGTSVTVSS VL: DIVMTQSHKFLSTSVGDRVSITCKASQDVYTAVAWFQQKPGQSPKLLFYSASYRFTGVPDRFNGSGSGTDFTLTITSMQAEDLAVYYCQQHYSTPWTFGGGTKLEIK	69.2	23	0.0186	0.0122	25.6	23.3	930	0.000782	841000	1880					
255C12B10 chimeric antibody (antibody, V domains shown, Mouse variable regions combined with human IgG1 (N297A) constant regions) VH: EVQLQQSGPELVKPGASVKMSCKASGYTFTGYNMNWVKQSHGKSLEWIGYINPNNGGTRYNQKFKGKATLTINKSSSTAYMELRSLTSEDSAVYYCARDYGIDYWGQGTTLTVSS VL: EIQMTQSPSSMSASLGDRITITCQATQDIVKNLNWYQQKPGKPPSFLIYYATELAEGVPSRFSGSGSGSDYSLTISNLESEDFADYYCLQFYEFPYTFGGGTKLEIK		18.3	0.00562	0.00546	18.9	20.4	536	0.000158	296000	3780	11.4	0.0228			
124B11F6 chimeric antibody (antibody, human IgG1, V domains shown, also called 124B11F6-mHL) VH: EVQLQQSGAELVRPGASVKLSCTASVFNIKDYYMHWVKQRTEQGLEWIGRIDPEDDKTKYAPKFQGKATITADTSSNTAYLHLSTLTSEDTAVYYCVRGWLGYIMDFWGQGTSVTVSS VL: QLVLTQSSSASFSLGASAKLTCTLSSQHSTYTIDWYQQQPLKPPKYVMELKEDGSHSTGDGIPDRFSGSSSGADRYLGISNIQPEDEAVYICGVGATIKEQFVYVFGGGTKVTVL	44.9	79.5	0.0216	0.016		108	1.43	1.46e-07	102000	9440	22.7	0.0212	83.4	0.000114	1.37e+06
174C11C9 chimeric antibody (antibody, human IgG1, V domains shown, also called 174C11C9-mHL) VH: EVQLQQSGPVLVKPGASVKMSCEASGYIFTDYYMNWVKQSPGKSLEWIGVFNPYSGGISYNQKFKGKATLTVDTSSSTAYMELNSLTSEDSAVYYCARDYYYLSSHGFYALDYWGQGTSVTVSS VL: DIVLTQSPASLAVSLGQRATISCRASESVDSYGNSFIHWYQQRPGRPPKLLMYRASNLESGIPARFSGSGSRTDFTLTIDPVEADDVATYYCQQSNEDPLTFGAGTKLELK	52.4		0.00522	0.00748	73.4	7.68	305	0.00037	1.21e+06	1590	4.2	0.00985	175	0.000305	1.74e+06
